In patent US20230407373A1 (priority 2020, published 2023):
Where two headings read alike, the source gives them in different places.

B1: ZNF326: host protein, UniProt Q5BKZ1 (protein, UniProt Q5BKZ1 1-582, looked up)
DBIRD complex subunit ZNF326: MDFEDDYTHSACRNTYQGFNGMDRDYGPGSYGGMDRDYGHGSYGGQRSMDSYLNQSYGMDNHSGGGGGSRFGPYESYDSRSSLGGRDLYRSGYGFNEPEQSRFGGSYGGRFESSYRNSLDSFGGRNQGGSSWEAPYSRSKLRPGFMEDRGRENYSSYSSFSSPHMKPAPVGSRGRGTPAYPESTFGSRNYDAFGGPSTGRGRGRGHMGDFGSIHRPGIVVDYQNKSTNVTVAAARGIKRKMMQPFNKPSGTFIKKPKLAKPMEKISLSKSPTKTDPKNEEEEKRRIEARREKQRRRREKNSEKYGDGYRMAFTCSFCKFRTFEEKDIELHLESSSHQETLDHIQKQTKFDKVVMEFLHECMVNKFKKTSIRKQQTNNQTEVVKIIEKDVMEGVTVDDHMMKVETVHCSACSVYIPALHSSVQQHLKSPDHIKGKQAYKEQIKRESVLTATSILNNPIVKARYERFVKGENPFEIQDHSQDQQIEGDEEDEEKIDEPIEEEEDEDEEEEAEEVGEVEEVEEVEEVREGGIEGEGNIQGVGEGGEVGVVGEVEGVGEVEEVEELEEETAKEEPADFPVEQPEEN
B2: TXN (protein, UniProt P10599 2-105, looked up)
Thioredoxin: VKQIESKTAFQEALDAAGDKLVVVDFSATWCGPCKMIKPFFHSLSEKYSNVIFLEVDVDDCQDVASECEVKCMPTFQFFKKGQKVGEFSGANKEKLEATINELV
B3: EIF2AK2 (protein, UniProt P19525 2-551, looked up)
Interferon-induced, …: AGDLSAGFFMEELNTYRQKQGVVLKYQELPNSGPPHDRRFTFQVIIDGREFPEGEGRSKKEAKNAAAKLAVEILNKEKKAVSPLLLTTTNSSEGLSMGNYIGLINRIAQKKRLTVNYEQCASGVHGPEGFHYKCKMGQKEYSIGTGSTKQEAKQLAAKLAYLQILSEETSVKSDYLSSGSFATTCESQSNSLVTSTLASESSSEGDFSADTSEINSNSDSLNSSSLLMNGLRNNQRKAKRSLAPRFDLPDMKETKYTVDKRFGMDFKEIELIGSGGFGQVFKAKHRIDGKTYVIKRVKYNNEKAEREVKALAKLDHVNIVHYNGCWDGFDYDPETSDDSLESSDYDPENSKNSSRSKTKCLFIQMEFCDKGTLEQWIEKRRGEKLDKVLALELFEQITKGVDYIHSKKLIHRDLKPSNIFLVDTKQVKIGDFGLVTSLKNDGKRTRSKGTLRYMSPEQISSQDYGKEVDLYALGLILAELLHVCDTAFETSKFFTDLRDGIISDIFDKKEKTLLQKLLSKKPEDRPNTSEILRTLTVWKKSPEKNERHTC
B4: XRN2: host protein, UniProt Q9H0D6 (protein, UniProt Q9H0D6 1-950, looked up)
5'-3' exoribonuclease 2: MGVPAFFRWLSRKYPSIIVNCVEEKPKECNGVKIPVDASKPNPNDVEFDNLYLDMNGIIHPCTHPEDKPAPKNEDEMMVAIFEYIDRLFSIVRPRRLLYMAIDGVAPRAKMNQQRSRRFRASKEGMEAAVEKQRVREEILAKGGFLPPEEIKERFDSNCITPGTEFMDNLAKCLRYYIADRLNNDPGWKNLTVILSDASAPGEGEHKIMDYIRRQRAQPNHDPNTHHCLCGADADLIMLGLATHEPNFTIIREEFKPNKPKPCGLCNQFGHEVKDCEGLPREKKGKHDELADSLPCAEGEFIFLRLNVLREYLERELTMASLPFTFDVERSIDDWVFMCFFVGNDFLPHLPSLEIRENAIDRLVNIYKNVVHKTGGYLTESGYVNLQRVQMIMLAVGEVEDSIFKKRKDDEDSFRRRQKEKRKRMKRDQPAFTPSGILTPHALGSRNSPGSQVASNPRQAAYEMRMQNNSSPSISPNTSFTSDGSPSPLGGIKRKAEDSDSEPEPEDNVRLWEAGWKQRYYKNKFDVDAADEKFRRKVVQSYVEGLCWVLRYYYQGCASWKWYYPFHYAPFASDFEGIADMPSDFEKGTKPFKPLEQLMGVFPAASGNFLPPSWRKLMSDPDSSIIDFYPEDFAIDLNGKKYAWQGVALLPFVDERRLRAALEEVYPDLTPEETRRNSLGGDVLFVGKHHPLHDFILELYQTGSTEPVEVPPELCHGIQGKFSLDEEAILPDQIVCSPVPMLRDLTQNTVVSINFKDPQFAEDYIFKAVMLPGARKPAAVLKPSDWEKSSNGRQWKPQLGFNRDRRPVHLDQAAFRTLGHVMPRGSGTGIYSNAAPPPVTYQGNLYRPLLRGQAQIPKLMSNMRPQDSWRGPPPLFQQQRFDRGVGAEPLLPWNRMLQTQNAAFQPNQYQMLAGPGGYPPRRDDRGGRQGYPREGRKYPLPPPSGRYNWN
B5: KRT10 (protein, UniProt P13645 1-584, looked up)
Keratin, type I cytoskeletal …: MSVRYSSSKHYSSSRSGGGGGGGGCGGGGGVSSLRISSSKGSLGGGFSSGGFSGGSFSRGSSGGGCFGGSSGGYGGLGGFGGGSFRGSYGSSSFGGSYGGIFGGGSFGGGSFGGGSFGGGGFGGGGFGGGFGGGFGGDGGLLSGNEKVTMQNLNDRLASYLDKVRALEESNYELEGKIKEWYEKHGNSHQGEPRDYSKYYKTIDDLKNQILNLTTDNANILLQIDNARLAADDFRLKYENEVALRQSVEADINGLRRVLDELTLTKADLEMQIESLTEELAYLKKNHEEEMKDLRNVSTGDVNVEMNAAPGVDLTQLLNNMRSQYEQLAEQNRKDAEAWFNEKSKELTTEIDNNIEQISSYKSEITELRRNVQALEIELQSQLALKQSLEASLAETEGRYCVQLSQIQAQISALEEQLQQIRAETECQNTEYQQLLDIKIRLENEIQTYRSLLEGEGSSGGGGRGGGSFGGGYGGGSSGGGSSGGGHGGGHGGSSGGGYGGGSSGGGSSGGGYGGGSSSGGHGGSSSGGYGGGSSGGGGGGYGGGSSGGGSSSGGGYGGGSSSGGHKSSSSGSVGESSSKGPRY
B6: TOP1 (protein, UniProt P11387 2-765, looked up)
DNA topoisomerase 1: SGDHLHNDSQIEADFRLNDSHKHKDKHKDREHRHKEHKKEKDREKSKHSNSEHKDSEKKHKEKEKTKHKDGSSEKHKDKHKDRDKEKRKEEKVRASGDAKIKKEKENGFSSPPQIKDEPEDDGYFVPPKEDIKPLKRPRDEDDADYKPKKIKTEDTKKEKKRKLEEEEDGKLKKPKNKDKDKKVPEPDNKKKKPKKEEEQKWKWWEEERYPEGIKWKFLEHKGPVFAPPYEPLPENVKFYYDGKVMKLSPKAEEVATFFAKMLDHEYTTKEIFRKNFFKDWRKEMTNEEKNIITNLSKCDFTQMSQYFKAQTEARKQMSKEEKLKIKEENEKLLKEYGFCIMDNHKERIANFKIEPPGLFRGRGNHPKMGMLKRRIMPEDIIINCSKDAKVPSPPPGHKWKEVRHDNKVTWLVSWTENIQGSIKYIMLNPSSRIKGEKDWQKYETARRLKKCVDKIRNQYREDWKSKEMKVRQRAVALYFIDKLALRAGNEKEEGETADTVGCCSLRVEHINLHPELDGQEYVVEFDFLGKDSIRYYNKVPVEKRVFKNLQLFMENKQPEDDLFDRLNTGILNKHLQDLMEGLTAKVFRTYNASITLQQQLKELTAPDENIPAKILSYNRANRAVAILCNHQRAPPKTFEKSMMNLQTKIDAKKEQLADARRDLKSAKADAKVMKDAKTKKVVESKKKAVQRLEEQLMKLEVQATDREENKQIALGTSKLNYLDPRITVAWCKKWGVPIEKIYNKTQREKFAWAIDMADEDYEF
B7: ADAR (protein, UniProt P55265 1-1226, looked up)
Double-stranded RNA-specific …: MNPRQGYSLSGYYTHPFQGYEHRQLRYQQPGPGSSPSSFLLKQIEFLKGQLPEAPVIGKQTPSLPPSLPGLRPRFPVLLASSTRGRQVDIRGVPRGVHLRSQGLQRGFQHPSPRGRSLPQRGVDCLSSHFQELSIYQDQEQRILKFLEELGEGKATTAHDLSGKLGTPKKEINRVLYSLAKKGKLQKEAGTPPLWKIAVSTQAWNQHSGVVRPDGHSQGAPNSDPSLEPEDRNSTSVSEDLLEPFIAVSAQAWNQHSGVVRPDSHSQGSPNSDPGLEPEDSNSTSALEDPLEFLDMAEIKEKICDYLFNVSDSSALNLAKNIGLTKARDINAVLIDMERQGDVYRQGTTPPIWHLTDKKRERMQIKRNTNSVPETAPAAIPETKRNAEFLTCNIPTSNASNNMVTTEKVENGQEPVIKLENRQEARPEPARLKPPVHYNGPSKAGYVDFENGQWATDDIPDDLNSIRAAPGEFRAIMEMPSFYSHGLPRCSPYKKLTECQLKNPISGLLEYAQFASQTCEFNMIEQSGPPHEPRFKFQVVINGREFPPAEAGSKKVAKQDAAMKAMTILLEEAKAKDSGKSEESSHYSTEKESEKTAESQTPTPSATSFFSGKSPVTTLLECMHKLGNSCEFRLLSKEGPAHEPKFQYCVAVGAQTFPSVSAPSKKVAKQMAAEEAMKALHGEATNSMASDNQPEGMISESLDNLESMMPNKVRKIGELVRYLNTNPVGGLLEYARSHGFAAEFKLVDQSGPPHEPKFVYQAKVGGRWFPAVCAHSKKQGKQEAADAALRVLIGENEKAERMGFTEVTPVTGASLRRTMLLLSRSPEAQPKTLPLTGSTFHDQIAMLSHRCFNTLTNSFQPSLLGRKILAAIIMKKDSEDMGVVVSLGTGNRCVKGDSLSLKGETVNDCHAEIISRRGFIRFLYSELMKYNSQTAKDSIFEPAKGGEKLQIKKTVSFHLYISTAPCGDGALFDKSCSDRAMESTESRHYPVFENPKQGKLRTKVENGEGTIPVESSDIVPTWDGIRLGERLRTMSCSDKILRWNVLGLQGALLTHFLQPIYLKSVTLGYLFSQGHLTRAICCRVTRDGSAFEDGLRHPFIVNHPKVGRVSIYDSKRQSGKTKETSVNWCLADGYDLEILDGTRGTVDGPRNELSRVSKKNIFLLFKKLCSFRYRRDLLRLSYGEAKKAARDYETAKNYFKKGLKDMGYGNWISKPQEEKNFYLCPV

Columns and labels:
[1] = test system: gRNA of HCoV-OC43; type: binding; conditions: for target (spectral count, OC43 Probe I RNP capture) / background (spectral count, no-probe control): type n_48_v: 48 hours post-infection; for target (spectral count, OC43 Probe I RNP capture): infected cells, unweighted spectral count; for background (spectral count, no-probe control): no-probe control on infected cells
[2] = test system: HCoV-OC43 gRNA and sgRNA; type: binding; conditions: for target (unweighted spectral count, OC43 Probe II capture) / target (unweighted spectral count): tested against no-probe control; for target (unweighted spectral count, OC43 Probe II capture): FDR<10%; for target (unweighted spectral count, OC43 Probe II) / background (unweighted spectral count, no-probe control): type n_48_v, 48 hpi; for target (unweighted spectral count, OC43 Probe II): OC43 Probe II capture on infected cells; for background (unweighted spectral count, no-probe control): no-probe control on infected cells; for target (unweighted spectral count): OC43 Probe II, infected cells

Molecule	target (spectral count, OC43 Probe I RNP capture) [1]	background (spectral count, no-probe control) [1]	target (unweighted spectral count, OC43 Probe II capture) ([2]; 24 hpi, type n_24_v)	target (unweighted spectral count, OC43 Probe II capture) ([2]; 36 hpi, type n_36_v)	target (unweighted spectral count, OC43 Probe II) [2]	background (unweighted spectral count, no-probe control) [2]	target (spectral count) ([2]; type s_36_m, HCoV-OC43-infected HCT-8 cells, 36 hpi, Probe II)	background (spectral count) ([2]; type s_36_m, uninfected-probe control, 36 hpi, Probe II)	target (spectral count) ([1]; type g_36_m, HCoV-OC43-infected HCT-8 cells, 36 hpi, Probe I)	background (spectral count) ([1]; type g_36_m, uninfected-probe control, 36 hpi, Probe I)	target (unweighted spectral count) ([2]; 12 hpi (type n_12_v))	target (unweighted spectral count) ([2]; 24 hpi (type n_24_v))
B1	10	2	4	7	8	2	7	1	–	–	–	–
B2	8	1	–	6	–	–	–	–	–	–	–	–
B3	8	1	–	4	8	1	–	–	–	–	–	–
B4	9	1	–	–	10	1	–	–	8	1	–	–
B5	14	3	–	–	22	3	–	–	–	–	–	–
B6	12	2	–	14	–	–	–	–	–	–	31	12
B7	11	2	–	–	11	2	–	–	–	–	–	–
